The text below walks through data of patent US11298402B2, “Lysosomal degradation of lipids and proteins and method of use thereof” (University of Ottawa, priority 2015, dated 2022).

Entries after “also recorded” stand apart in the source; their conditions may differ.

What all share (assay type): cell-based, rat
The subject of test [1] is McA-RH7777 cells (A18-C3). The experiment in a line: Immuno-EM of Arl8b organellar association. As to conditions: RFP-tagged Arl8b in transfected cells, 1 h post-EPA. The procedure:
For immunogold labeling, pellets of cells cultured in media containing OA or EPA (0.4 mM) were fixed with 0.5% glutaraldehyde and 4% paraformaldehyde in 0.1 M phosphate buffer (pH 7.4) and dehydrated through a series of graded ethanol dilutions, and embedded in LR White acrylic resin (London Resin Company). Ultrathin sections (80 nm) were placed on Formvar-coated nickel grids. For post-embedding immunolabeling, the sections were incubated with an anti-Arl8b antibody (Fitzgerald) for 1 h. For ^RFPArl8b-transfected cells, that primary antibody used was anti-RFP (Abcam). After washing with 0.2 M sodium cacodylate buffer containing 0.1% calcium chloride, pH 7.4, the samples were incubated with the secondary antibody conjugated with 10-nm gold particles. To increase contrast, the ultrathin sections were stained with 2% uranyl acetate for 6 min and Reynold's lead for 5 min. The grids were examined with a Tecnai 12 120 kV TEM as described above.

Test [2] relates to endogenous HOPS subunits (Vps41, Vps11, Vps39). In words: Proximity ligation assay (in situ co-IP) of Arl8b with HOPS subunits. To be noted: mCherry-tagged Arl8b mutants; baseline and 1 h post-EPA. The procedure:
In certain non-limiting examples described herein, McA-RH7777 cells stably expressing human apoB-100 and human apoC-III (designated A18-C3) were used for the studies. […] In addition, these studies, particularly those concerning EPA- or DHA-triggered lysosomal motility and CLD degradation, were also performed using primary rat hepatocytes. Transfection of plasmids encoding proteins of interest, or transfection of siRNA specific for silencing target gene expression, was achieved using the FuGENE HP Extreme reagent (Roche). Representative gene silencing siRNA sequences, which are not meant to be limiting, are described in Table 1, and plasmids encoding proteins of interest are described in Table 2. The effectiveness of siRNA silencing was verified by Western-blotting of cellular content of the target proteins, and by intracellular localization assay using siRNA-Tracker (Mirus Bioscience). Twenty-four h after plasmid transfection, or 48 h after siRNA transfection, the cells were cultured in lipid-rich media containing fetal bovine serum (20%) and OA (0.4 mM). The lipid-laden cells were switched to fresh media supplemented with OA or EPA (0.4 mM). In live imaging experiments, LipidTOX Red (Life Technologies) and LysoTracker (Life Technologies) were added to media prior to EPA treatment, to visualize lipid droplets and lysosomes, respectively. For visualizing peroxisomes, Peroxisome-GFP (Invitrogen) was introduced to the cells 24 h prior to experiments. Quantification of cell lipid contents was achieved either by direct mass measurement (HPTLC) and counting the number of lipid droplets using Image J Lipid Droplet Counter Plug-In, or indirectly by Western blot analysis of cellular content of ADRP. Secretion of apoB and TG-rich lipoprotein was determined by Western blot analysis and metabolic labeling. Mitochondrial β-oxidation was measured using MitoSOX Red (Life Technologies) in situ. Autophagic flux was determined by using Cyto-ID assay (Enzo Life Science) and by monitoring GFP-LC3 clustering in situ. Interaction of Arl8b and subunits of the HOPS complex was determined in situ by the proximity ligation assay (Olink Biosience). Cytoplasmic pH was measured using the cytosolic pHrodo indicator reagent (Invitrogen). Live imaging of fluorescent-tagged proteins was performed 1 h post-EPA treatment. Cells were also collected at the time of EPA treatment for transmission EM and tomography, as well as immuno-EM. For movies, cells were imaged at 60 sec intervals every 5 min, for a total of 30 min.
Cells were transfected with plasmids encoding RFP-tagged Arl8b^WT, Arl8b^Q75L, or Arl8b^T34N. The cells were treated with OA for 16 h (baseline condition as control). […] Quantification of signals was done in a total of 50 cells under each condition from 3 independent experiments.

Test [3] concerns McA-RH7777 cells (A18-C3). The experiment in a line: Live imaging of lysosomal motility and lysosome-CLD interaction (kiss-and-run). As to conditions: for lysosomal adherence to / dissociation from CLD (the off phase): Arl8b-expressing cells, EPA.
Test [4] deals with McA-RH7777 cells (A18-C3). The experiment in a line: Autophagic flux (Cyto-ID assay). The procedure: In certain non-limiting examples described herein, McA-RH7777 cells stably expressing human apoB-100 and human apoC-III (designated A18-C3) were used for the studies. […] In addition, these studies, particularly those concerning EPA- or DHA-triggered lysosomal motility and CLD degradation, were also performed using primary rat hepatocytes. Transfection of plasmids encoding proteins of interest, or transfection of siRNA specific for silencing target gene expression, was achieved using the FuGENE HP Extreme reagent (Roche). […] Quantification of cell lipid contents was achieved either by direct mass measurement (HPTLC) and counting the number of lipid droplets using Image J Lipid Droplet Counter Plug-In, or indirectly by Western blot analysis of cellular content of ADRP. Secretion of apoB and TG-rich lipoprotein was determined by Western blot analysis and metabolic labeling. Mitochondrial β-oxidation was measured using MitoSOX Red (Life Technologies) in situ. Autophagic flux was determined by using Cyto-ID assay (Enzo Life Science) and by monitoring GFP-LC3 clustering in situ. Interaction of Arl8b and subunits of the HOPS complex was determined in situ by the proximity ligation assay (Olink Biosience). Cytoplasmic pH was measured using the cytosolic pHrodo indicator reagent (Invitrogen). […]

B1: Arl8b^T34N: putative GDP-bound, dominant negative Arl8b mutant (Thr-to-Asn at 34; SEQ ID NO: 12), expressed from plasmid or adenovirus Adv-MG1023; tagged forms used (protein)
chain: MLALISRLLDWFRSLFWKEEMELTLVGLQYSGKNTFVNVIASGQFSEDMIPTVGFNMRKVTKGNVTIKIWDIGGQPRFRSMWERYCRGVNAIVYMIDAADREKIEASRNELHNLLDKPQLQGIPVLVLGNKRDLPNALDEKQLIEKMNLSAIQDREICCYSISCKEKDNIDITLQWLIQHSKSRRS
modifications: GFP/RFP tags in some forms; T34N substitution, GDP-binding
notes: tagged forms used
B1: the “organellar association (lysosome vs CLD)” value in test [1] was “mainly CLD-borne”. In addition, the “binding to endogenous HOPS subunits” value in test [2] is “only shows interaction with Vps39”. In addition, the “lysosomal adherence to / dissociation from CLD (the off phase)” value in test [3] is given as “fastened”. For the same molecule, the “autophagic flux upon EPA treatment in transfected cells” value in test [4] is on record as “does not induce autophagic flux”.

B2: Arl8b^Q75L: putative GTP-bound, dominant active Arl8b mutant (Gln-to-Leu at 75; SEQ ID NO: 13), expressed from plasmid or adenovirus Adv-MG1022; tagged forms used (protein)
chain: MLALISRLLDWFRSLFWKEEMELTLVGLQYSGKTTFVNVIASGQFSEDMIPTVGFNMRKVTKGNVTIKIWDIGGLPRFRSMWERYCRGVNAIVYMIDAADREKIEASRNELHNLLDKPQLQGIPVLVLGNKRDLPNALDEKQLIEKMNLSAIQDREICCYSISCKEKDNIDITLQWLIQHSKSRRS
modifications: GFP/RFP tags in some forms; Q75L substitution, GTP-binding
notes: tagged forms used
Regarding B2, in test [1], the “organellar association (lysosome vs CLD)” value is “predominately associated with lysosomes”. Also, the “binding to endogenous HOPS subunits” value in test [2] is “binds to Vps41 and Vps11; also recorded: does not bind to Vps39”. In addition, the “lysosomal adherence to / dissociation from CLD (the off phase)” value in test [3] is on record as “no disassociation of lysosomes from CLD occurred”; in test [3] (listed as GFP::Arl8b^Q75L), “prolonged lysosomal adherence to CLD”. Also, the “effect on EPA-triggered lysosomal motility / lysosomal interaction with CLD” value in test [3] (cells silenced, transfected or pre-treated (15 min) before EPA) is “higher incidence of direct lysosome-lipid droplet interaction”.
